Reference: patent EP0813419B1 (YEDA RESEARCH & DEVELOPMENT COMPANY, LTD., dated 2005)

B1: 'death domain' (DD) of human MORT-1 (residues 92-208) (other, not shown: large carriers)
chain: PGEEDLCAAFNVICDNVGKDWRRLARQLKVSDTKIDSIEDRYPRNLTERVRESLRIWKNTEKENATVAHLVGALRSCQMNLVADLVQEVQQARDLQNRSGAMSPMSWNSDASTSEAS
notes: Gal4 hybrid construct in yeast; also called HF1; MORT-1 DD
B2: 'death domain' (DD) of human TRADD (residues 195-312) (other, not shown: large carriers)
chain: PPPPAQTFLFQGQPVVNRPLSLKDQQTFARSVGLKWRKVGRSLQRGCRALRDPALDSLAYEYEREGLYEQAFQLLRRFVQAEGRRATLQRLVEALEENELTSLAEDLLGLTDPNGGLA
notes: Gal4 hybrid construct in yeast; also called TRADD DD

Key:
[1] = molecular target: T1, intracellular domain of the human p75 TNF receptor (human, UniProt P20333 288-461, limits assumed); experiment: yeast two-hybrid specificity test (not shown)
T1 construct: domain: intracellular domain; construct not described; also called p75IC
T1 sequence (looked up): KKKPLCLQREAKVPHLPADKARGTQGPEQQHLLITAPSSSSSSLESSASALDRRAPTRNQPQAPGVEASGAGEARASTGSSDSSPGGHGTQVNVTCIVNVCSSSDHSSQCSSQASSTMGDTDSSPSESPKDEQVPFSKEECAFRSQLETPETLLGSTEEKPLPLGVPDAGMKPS

[2] = molecular target: B2; experiment: yeast two-hybrid (Gal4 DBD and AD fusions, SFY526), beta-galactosidase filter assay
[3] = molecular target: the molecule itself; experiment: yeast two-hybrid (Gal4 DBD and AD fusions, SFY526), beta-galactosidase filter assay; self-association
[4] = molecular target: B1; experiment: yeast two-hybrid specificity test (not shown)
[5] = molecular target: B2; experiment: yeast two-hybrid specificity test (not shown)

B1
binding result [1]: no binding | binding result [2]: binds | binding result [3]: no binding

B2
binding result [1]: no binding | binding result [3]: binds

B3: DD of the rat low-affinity NGF receptor (receptor, UniProt P07174 340-425, looked up)
chain: LPLTKREEVEKLLNGDTWRHLAGELGYQPEHIDSFTHEACPVRALLASWGAQDSATLDALLAALRRIQRADIVESLCSESTATSPV
notes: domain: DD; Two-hybrid control; construct not described
binding result [4]: no binding | binding result [5]: no binding
